Laboratory results taken from PMC6182170, “A protein–protein interaction underlies the molecular basis for substrate recognition by an adenosine-to-inosine RNA-editing enzyme”.

Molecular target: T1, ADR-1 dsRBD2 mutant (ds2) (Caenorhabditis elegans, UniProt Q9U3D6 1-964, K584E;K585A;K588A)
T1 sequence: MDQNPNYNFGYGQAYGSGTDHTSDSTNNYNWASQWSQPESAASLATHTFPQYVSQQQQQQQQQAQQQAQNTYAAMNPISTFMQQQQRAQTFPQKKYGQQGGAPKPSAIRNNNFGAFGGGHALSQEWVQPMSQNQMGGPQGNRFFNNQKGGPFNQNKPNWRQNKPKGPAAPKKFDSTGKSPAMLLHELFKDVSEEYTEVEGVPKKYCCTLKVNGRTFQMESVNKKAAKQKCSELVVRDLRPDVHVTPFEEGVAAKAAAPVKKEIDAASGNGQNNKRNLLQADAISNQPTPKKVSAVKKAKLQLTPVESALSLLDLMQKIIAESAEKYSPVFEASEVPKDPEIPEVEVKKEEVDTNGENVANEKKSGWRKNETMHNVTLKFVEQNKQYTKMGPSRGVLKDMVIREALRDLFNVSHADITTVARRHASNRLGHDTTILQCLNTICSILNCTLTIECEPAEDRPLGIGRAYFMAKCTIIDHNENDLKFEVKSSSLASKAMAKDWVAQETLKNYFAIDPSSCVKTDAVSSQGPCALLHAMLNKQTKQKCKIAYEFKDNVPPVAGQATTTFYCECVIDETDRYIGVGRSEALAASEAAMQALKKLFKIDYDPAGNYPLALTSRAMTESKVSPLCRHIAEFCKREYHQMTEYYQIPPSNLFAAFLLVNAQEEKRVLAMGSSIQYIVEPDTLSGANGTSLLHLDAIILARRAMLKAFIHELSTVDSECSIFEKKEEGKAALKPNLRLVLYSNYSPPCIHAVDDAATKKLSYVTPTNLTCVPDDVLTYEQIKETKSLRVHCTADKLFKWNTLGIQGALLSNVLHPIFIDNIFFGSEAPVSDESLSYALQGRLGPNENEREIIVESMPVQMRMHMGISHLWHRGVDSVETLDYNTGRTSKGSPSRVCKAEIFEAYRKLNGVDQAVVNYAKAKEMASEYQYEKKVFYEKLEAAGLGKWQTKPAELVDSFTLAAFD
Assay: EMSA; apparent Kd; text calls binding similar to WT; EMSA: 20 pM dsRNA, 50 mM KCl, 10 mM Tris-HCl pH 8.0, 10% glycerol, 1 mM MgCl2, 0.5 mM DTT, on ice 30 min; native 6% gel, 0.5x TBE, 4 C
Conditions: protein: recombinant; tags: N-terminal 6xHis (TEV site); label: 5' 32P on ssRNAs (PNK); imperfect duplex; printed strands 45 and 46 nt

B1: lam-2 3'UTR 46 bp dsRNA (dsRNA)
RNA 1: AGACACACAUACAAAAUUUACAAAAAUUGUUAAUUGACAAAAUAC
RNA 2: GUGUUUUGCCAAUUAACGAUUUUUUGUAAAUUUUAUAUGUGUCUCU
  Kd: 4.67 ± 0.7 nM
